Measured values taken from the RNAGym collection of RNA variant scans (doi:10.7554/elife.80360).

B1: CPEB3 Ribozyme (parent)
chain: GGGGGCCACAGCAGAAGCGUUCACGUCGCGGCCCCUGUCAGAUUCUGGUGAAUCUGCGAAUUCUGCUGU

Variants of: B1
Experiment: self-cleavage, relative activity (ratio to wild type); higher = more cleavage; co-transcriptional

Variant	self-cleavage
GUGGGCCACAGCAGUAGCGUUCACGUCGCGGCCCCUGUCAGAUUCUGGUGAAUCUGCGAAUUCUGCUGU [G2U A15U]	0.0721
GUGGGCCACAGCAGCAGCGUUCACGUCGCGGCCCCUGUCAGAUUCUGGUGAAUCUGCGAAUUCUGCUGU [G2U A15C]	0.085
GUGGGCCACAGCAGAAGCGUUCACGUCGCGGCCCCUGUCAGAUUCUGGUGAAUCUGAGAAUUCUGCUGU [G2U C57A]	0.0471
GUGGGCCACAGCAGAAGCGUUCACGUCGCGGCCCCUGUCAGAUUCUGGUGAAUCUGGGAAUUCUGCUGU [G2U C57G]	0.0241
GUGGGCCACAGCAGAAGCGUUCACGUCGCGGCCCCUGUCAGAUUCUGGUGAAUCUGCGAAUUCUGCUGU [G2U]	0.0871
GCGGGCCACAGCAGAAGCGUUCACGUCGCGGCCCCUGUCAGAUUCUGGUGAAUCUGCGAAUUCUGCUGA [G2C U69A]	0.111
GCGGGCCACAGCAGAAGCGUUCACGUCGCGGCCCCUGUCAGAUUCUGGUGAAUCUGCGAAUUCUGCUGC [G2C U69C]	0.147
GUGGGCCACAGCAGAAGCGUUCACGUCGGGGCCCCUGUCAGAUUCUGGUGAAUCUGCGAAUUCUGCUGU [G2U C29G]	0.0442
GUGGGCCACAGCAGAAGCGUUCACGUCGAGGCCCCUGUCAGAUUCUGGUGAAUCUGCGAAUUCUGCUGU [G2U C29A]	0.0519
GUGGGUCACAGCAGAAGCGUUCACGUCGCGGCCCCUGUCAGAUUCUGGUGAAUCUGCGAAUUCUGCUGU [G2U C6U]	0.0652
GUGGGGCACAGCAGAAGCGUUCACGUCGCGGCCCCUGUCAGAUUCUGGUGAAUCUGCGAAUUCUGCUGU [G2U C6G]	0.0267
GUGGGACACAGCAGAAGCGUUCACGUCGCGGCCCCUGUCAGAUUCUGGUGAAUCUGCGAAUUCUGCUGU [G2U C6A]	0.0497
GUGGGCCACAGCAGAAACGUUCACGUCGCGGCCCCUGUCAGAUUCUGGUGAAUCUGCGAAUUCUGCUGU [G2U G17A]	0.0534
GUGGGCCACAGCAGAAGCGUUCCCGUCGCGGCCCCUGUCAGAUUCUGGUGAAUCUGCGAAUUCUGCUGU [G2U A23C]	0.0692
GUGGGCCACAGCAGAAGCGUUCUCGUCGCGGCCCCUGUCAGAUUCUGGUGAAUCUGCGAAUUCUGCUGU [G2U A23U]	0.133
GUGGGCCACAGCUGAAGCGUUCACGUCGCGGCCCCUGUCAGAUUCUGGUGAAUCUGCGAAUUCUGCUGU [G2U A13U]	0.052
GUGGGCCACAGCCGAAGCGUUCACGUCGCGGCCCCUGUCAGAUUCUGGUGAAUCUGCGAAUUCUGCUGU [G2U A13C]	0.09
GUGGGCCACAGCAGAAGCGUUCACGUCGCGGCCCCUGUCAGAUUCUGGUGACUCUGCGAAUUCUGCUGU [G2U A52C]	0.0652
GUGGGCCCCAGCAGAAGCGUUCACGUCGCGGCCCCUGUCAGAUUCUGGUGAAUCUGCGAAUUCUGCUGU [G2U A8C]	0.0912
GUGGGCCUCAGCAGAAGCGUUCACGUCGCGGCCCCUGUCAGAUUCUGGUGAAUCUGCGAAUUCUGCUGU [G2U A8U]	0.0613

Variant	self-cleavage
GUGGGCCGCAGCAGAAGCGUUCACGUCGCGGCCCCUGUCAGAUUCUGGUGAAUCUGCGAAUUCUGCUGU [G2U A8G]	0.0691
GUGGGCCACAGCAGAAGCGUUCACGUCGCGGCCCCUGUCAGAUUCUGGUGAAUCUGCGCAUUCUGCUGU [G2U A59C]	0.05
GUGGGCCACAGCAGAAGCGUUCACGUCGCGGCCCCUGUCAGAUUCUGGUGAAUCUGCGUAUUCUGCUGU [G2U A59U]	0.0606
GUGGGCCACAGCAGAAGCGUUCACGUCGCGGCCCCUGUCAGUUUCUGGUGAAUCUGCGAAUUCUGCUGU [G2U A42U]	0.0798
GUGGGCCACAGCAGAAGCGUUCACGUCGCGGCCCCUGUCAGCUUCUGGUGAAUCUGCGAAUUCUGCUGU [G2U A42C]	0.0887
GUGGGCCACAGCAGAAGCGUUCACGUCGCGGCCCCUGUCAGGUUCUGGUGAAUCUGCGAAUUCUGCUGU [G2U A42G]	0.0791
GUGGGCCACAGCAGAAGCGUUCAGGUCGCGGCCCCUGUCAGAUUCUGGUGAAUCUGCGAAUUCUGCUGU [G2U C24G]	0.0682
GUGGGCCACAGCAGAAGCGUUCAAGUCGCGGCCCCUGUCAGAUUCUGGUGAAUCUGCGAAUUCUGCUGU [G2U C24A]	0.0672
GUGGGCCACAGCAGAAGCGUUCAUGUCGCGGCCCCUGUCAGAUUCUGGUGAAUCUGCGAAUUCUGCUGU [G2U C24U]	0.038
GUGGGCCACAGCAGAAGCGUUCACGUCGCGGCCCCUGUCAGAUUCUGGUGAAUCUGCGAAUUCUGGUGU [G2U C66G]	0.0712
GUGGGCCACAGUAGAAGCGUUCACGUCGCGGCCCCUGUCAGAUUCUGGUGAAUCUGCGAAUUCUGCUGU [G2U C12U]	0.13
GUGGGCCACAGGAGAAGCGUUCACGUCGCGGCCCCUGUCAGAUUCUGGUGAAUCUGCGAAUUCUGCUGU [G2U C12G]	0.0633
GUGGGCCACAGAAGAAGCGUUCACGUCGCGGCCCCUGUCAGAUUCUGGUGAAUCUGCGAAUUCUGCUGU [G2U C12A]	0.0547
GUGGGCCACAGCAGAAGGGUUCACGUCGCGGCCCCUGUCAGAUUCUGGUGAAUCUGCGAAUUCUGCUGU [G2U C18G]	0.00659
GUGGUCCACAGCAGAAGCGUUCACGUCGCGGCCCCUGUCAGAUUCUGGUGAAUCUGCGAAUUCUGCUGU [G2U G5U]	0.0421
GUGGGCCACAGCAGAAGCGUUCACGUUGCGGCCCCUGUCAGAUUCUGGUGAAUCUGCGAAUUCUGCUGU [G2U C27U]	0.0348
GUGGGCCACAGCAGAAGCGUUCACGUGGCGGCCCCUGUCAGAUUCUGGUGAAUCUGCGAAUUCUGCUGU [G2U C27G]	0.0366
GUGGGCCACAGCAGAAGCGUUCACGUCGCGGCCCCUGUCAGAUUCUGGUGAAUCUGCGAUUUCUGCUGU [G2U A60U]	0.0623
GUGGGCCACAGCAGAAGCGUUCACGUCGCGGCCCCUGUCAGAUUCUGGUGAAUCUGCGACUUCUGCUGU [G2U A60C]	0.0553
